The record followed here is the PETadex activity labels (doi:10.1038/s41467-025-61599-z).

Substrate in data set [1]: PET
Kind of data set: Proxy for plastic degradation [Released monomer concentration (HPLC/LC-MS) (MHET+TPA)]. The settings on record: pH 9, part of the chain shown.

Substrate in data set [2]: pNPB
As to the kind of experiment: Proxy for plastic degradation [Absorbance @ 430nm] (min⁻¹). The note with it: pH 8; part of the chain shown.

Substrate in data set [3]: PET
As to the kind of experiment: Proxy for plastic degradation [kcat/Km (catalytic efficiency)] (mM⁻¹s⁻¹). The settings on record: pH 8; part of the chain shown.

Substrate in data set [4]: PET
Kind of data set: Proxy for plastic degradation [Released monomer concentration (HPLC/LC-MS) (TPA+MHET)]. The settings on record: part of the chain shown.

Assay in data set [5]: as above
The note with it: part of the chain shown.

For the sequence “FGNNGGGGGGEDNVFAEPGDFDVVTEPGGRDCTIFRPEQLGDDH”, the “Proxy for plastic degradation” value in data set [1] (30 °C) is 14 µM; in data set [1] (40 °C), 13.8 µM; in data set [1] (50 °C) it was 15.8 µM; in data set [1] (55 °C), 14.4 µM; in data set [1] (60 °C), 14.9 µM; in data set [2], 23500.

With “DEIGQAPTAANITGDGSFSTSSSAIFGQSGFGGGTAYYPNTAGKYPVVAF”, the “Proxy for plastic degradation” value amounted to 0.263 in data set [3]; 65.5 µM in data set [1] (30 °C); 759 µM in data set [1] (40 °C); 3600 µM in data set [1] (50 °C); 596 µM in data set [1] (55 °C); 167 µM in data set [1] (60 °C). Moreover, the “Proxy for plastic degradation” value in data set [4] (30 °C) turned out to be 65.5 µM; in data set [4] (40 °C) it was 759 µM; in data set [4] (55 °C) it was 167 µM; in data set [4] (60 °C), 104 µM; in data set [4] (pH 9, 50 °C, 24 h), 742 µM; in data set [4] (pH 9, 50 °C, 48 h), 1640 µM. The “Proxy for plastic degradation” value was determined as 3600 µM in data set [4] (pH 9, 50 °C, 72 h); 65 µM in data set [5] (30 °C); 759 µM in data set [5] (40 °C); 167 µM in data set [5] (60 °C); 34300 in data set [2].

Take “DPWDAPGPYATAVQIGAVNTLYYPRDIASSPRRHPVIVWGNGT”: the “Proxy for plastic degradation” value came out at 13 µM in data set [1] (30 °C); 13.4 µM in data set [1] (40 °C); 14.2 µM in data set [1] (50 °C); 13.4 µM in data set [1] (55 °C); 14.1 µM in data set [1] (60 °C); 21900 in data set [2].

For “NNPGGGGGTAPDTGTGFPGVSNFSASGSFATTSGSAGASCTVFRPST”, the “Proxy for plastic degradation” value worked out at 8.31 µM in data set [1] (30 °C); 9.03 µM in data set [1] (40 °C); 9.57 µM in data set [1] (50 °C); 9.09 µM in data set [1] (55 °C); 9.47 µM in data set [1] (60 °C); 25400 in data set [2].

Consider “ESETTAAAVSSRYYEETGPHAVTVEQGGPDHTLYYPSDLGAGGT”, for which the “Proxy for plastic degradation” value in data set [1] (30 °C) was 13.9 µM; in data set [1] (40 °C), 14.7 µM; in data set [1] (50 °C), 10.6 µM; in data set [1] (55 °C), 15.5 µM; in data set [1] (60 °C), 15.3 µM; in data set [2] it was 32300.

Turning to “AGFEKGPDPTTASVTADRGSYDIAQVDVPKGSGTGFADGTIYY”, the “Proxy for plastic degradation” value in data set [1] (30 °C) was found to be 14.6 µM; in data set [1] (40 °C), 14.2 µM; in data set [1] (50 °C), 14.1 µM; in data set [1] (55 °C), 14.4 µM; in data set [1] (60 °C), 15 µM; in data set [2] it was 16200.

On to “QDNSDGRYRPEGRTFARGAANLFDDRLFEARTYVTGTDVA”, for which the “Proxy for plastic degradation” value stood at 15.4 µM in data set [1] (30 °C); 15.5 µM in data set [1] (40 °C); 15.5 µM in data set [1] (50 °C); 16.6 µM in data set [1] (55 °C); 16.1 µM in data set [1] (60 °C); 49500 in data set [2].

With “QTNPYARGPNPTAASLEASAGPFTVRSFTVSRPSGYGAGTVYY”, the “Proxy for plastic degradation” value in data set [1] (30 °C) is 17.3 µM; in data set [1] (40 °C), 64.7 µM; in data set [1] (50 °C) it was 46.9 µM; in data set [1] (55 °C), 27.4 µM; in data set [1] (60 °C), 17.4 µM; in data set [2], 24900.

VTKGPDPSAAEVAKVTGSYAVTETKVDDAASTKFGPATV: the “Proxy for plastic degradation” value in data set [1] (30 °C) turned out to be 15 µM; in data set [1] (40 °C) it was 12.8 µM; in data set [1] (50 °C), 15.3 µM; in data set [1] (55 °C), 16.2 µM; in data set [1] (60 °C), 16.3 µM; in data set [2] it was 31400.

Take “TPEFKPQPGPLSIKSAAAISFRVEDQAKDLQIRVTYPDGPGPWP”: the “Proxy for plastic degradation” value was determined as 15.7 µM in data set [1] (30 °C); 12.8 µM in data set [1] (40 °C); 17.3 µM in data set [1] (50 °C); 17.3 µM in data set [1] (55 °C); 17.2 µM in data set [1] (60 °C); 16800 in data set [2].

As to “GDPPAVRTVPAAAAAPVDWSKTGPHQVKVDKADAHTIYRPSDLG”, the “Proxy for plastic degradation” value in data set [1] (30 °C) turned out to be 12.7 µM; in data set [1] (40 °C), 12.6 µM; in data set [1] (50 °C), 15.7 µM; in data set [1] (55 °C) it was 16 µM; in data set [1] (60 °C), 16.4 µM; in data set [2], 44800.

For the sequence “CFGGGDPDPSPEGQALGVPGDFEICSYEANLENDGYASARMTYPCDLS”, the “Proxy for plastic degradation” value in data set [1] (30 °C) came out at 9.91 µM; in data set [1] (40 °C) it was 9.79 µM; in data set [1] (50 °C), 11 µM; in data set [1] (55 °C), 10.1 µM; in data set [1] (60 °C), 10.5 µM; in data set [2], 24400.

Regarding “LDSPYQRGPDPTEASVKAIAGPFAVDQVKATGHTGFGSGTIFYP”, the “Proxy for plastic degradation” value was found to be 11.2 µM in data set [1] (30 °C); 22.8 µM in data set [1] (40 °C); 44.2 µM in data set [1] (50 °C); 26.1 µM in data set [1] (55 °C); 19.7 µM in data set [1] (60 °C); 41400 in data set [2].
